This assay addresses Leptospira interrogans thermolysin encoded by LIC13322, prothermolysin fragment PepSY-M4 (74 kDa) (Leptospira interrogans). Briefly: SEC.

What is called stoichiometry N is a count of units in the complex or per binding partner.

In the case of “Leptospira interrogans thermolysin encoded by LIC13322, prothermolysin fragment PepSY-M4 (74 kDa) (enzyme)”, the stoichiometry N was 2.

Source of the values: article PMC6036645.
